Results reported in patent publication US12077763B2, “RNA-based control of powdery mildew” (Greenlight Biosciences, Inc., priority 2021, dated 2024).

B1: GS1848: dsRNA trigger SEQ ID NO 134; gene target ADP-ribosylation factor-like protein 3 (nucleic acid)
chain: CACCGCCCATAGCTCCTTCAAAAACGTGTTTGACAAATCCCTCTTTGATTCGTACCACTTCAACGCAATCTTCACGATCTTGCTTATTTGCTAATATCAACAATGGTACACCGTCAATTTCTCCATTGACCAAGACTTCCTCCAGAGCCAATCGACACTCTTCAAGGCGACCCGACTCATCATGCTCCAAATCTCCATCACCAATCTCAGTGCTATCAATGAGGAAAATAATGGCGTGGCATGATCGATAGTAAGATTTCCATAGTTTGCGAAGAGATTCCTGACCACCTACATCCCAAAGCTTAAGGTACATGTCAGGCAGCGTAATAGTGCTCACATTTTGTCCGACTGTAGGTCCCGTATTTATTTTGGGTGCAGGCGCATGAGGCAGGAACAGGAATTTAACTTGTTCGTGAAAAGTTGTCTTGCCGGCGTTATCAAGTCCCAGCAAAAGAACCGAGTATTCTTCTTTGCGCGTTGCGTAGTGGTAGAGACCCTTAACCAAATGATACATGTAGGTTTAGATCTACATAAATGGAGAAAGAAATCTTAATTAGAATGG
B2: GS1852: dsRNA trigger SEQ ID NO 202; gene target PA-phosphatase related-family protein DDB_G0275547 (nucleic acid)
chain: TTCTCTTAGGGACGGTTGGCATCATTATTAATTTTGCAGAACCAATTCCATCTCGATCTTTTCCGATTTATTCTCAAAATGGAGATATTGTTTATCCTCAATTTGCATATCCTCTTCGCAAGAATATCATTCCAATTTGGGTAGCAATTTTGTTGGCTTCACTTATTCCTTTGCTCATCATTTTCCTTACACAATTTCGTATTCGCTCGTTTTGGGATGCAAACAACGCGATTACAGGGCTATTATACTCCCTTATTATCGCCGGAGTGTTTCAAGTCTTCTTAAAGTGGTTAATTGGAGGGCTGAGACCTCATTTTCTAACCGTCTGTGAGCCAATAATTCCAACACGTGCTCCAATAAAGGCTAGATATGGGCCTAGAATAATAATGTACGACAGAAATGTCTGCACTGGCGACAAAAGGCAGATCAATAATTCTCTTGAATCATTCCCTTCAAGCCAATCGACTGTAGCATTTTCTGGTTTCGTTTATTTGGCTATATACCTGAATGCAAAACTTAAAATTTGGTCTAATTACCATTCTGCCATGTGGAAGAT
B3: GS1846: dsRNA trigger SEQ ID NO 135; gene target Calcium-transporting ATPase 2 (nucleic acid)
chain: AGACCTTCGGGTACTGCTACAACAATTACAGTGACTGTCACAATGAAAATTTGCAGAAATTGCTGACCTTTAACGGTTGGTGTAGCATCATTGTTAGGTAGTCTAGCCAGAAACTCAATGAATAAGACTGTAAATAATAATAGACCAGCTCCTCCTCCAAGTTTAGCTATATACTCTGCTAAATTGTTCAATTTTGACTGTAATGGCGTGATTTCCGGATCTTCACGGAGCGACATTAATGTTTTCCCATAACTAGAGTTTACACCAGTTGAAGTAACTAAAAATGTACCCACACCTTCAGTGACAGTAGCCCCAGACAAAATAAATGGATCTAATTTTTCTAGCTTTTCGTGGTTCGAGATAGCAGCATAAACTTGGTCTGCCGGATGCTTGCGAATAATATCGGACTCGCCAGTTATTTGAGACTCATCACATCTAAGATTATGCCCTCCAATAAAAATTCCATCAACAGGAATCATGTCGCCAGGTTCAAGATGTAAAACATCGCCTACAAGAACATCATAGATGGATATTTCCGAAGTTTTCCCGGAACGAGTCACATTTACAT
B4: GS1840: dsRNA trigger SEQ ID NO 196; gene target Ubiquitin-conjugating enzyme E2-16 kDa (nucleic acid)
chain: TTGACTCTAGTTTTAAATACACATAAATGTTTGCTCAAACTATCTAGAGATTTTGCGTCTTGTAAAAAAATACTATATATGAAATATTATTGTGTACTATTGATGTATGAACTCGATGTGAGGTTTAAAATCTTATTGCTGCCATAGATAATCAAAAAATTATATTAATCCTATCCTTTTGGAACGATTCCTAATAGCAGATGTGTGTTCGTCTCTGTCCTTTGAATGACTCATTTCAGTCCAAATCTTCGTTGCTAATTCATCCACTCATTTCATAGCATATTTTTTTGTCGCTTTAACCGCCTCTTCATTAAATTCATTCCTGTTATTCCTGTATCTATCTGCTAATGCCGTTTCTACCGCATCATCAAGTACCGGCTCGGTCAGCATTTGCTGCGTTGCCATCAAAATATTGATGATTCGAGATGATGGTTTCCAGGCATCTGGTTTGAGAGCACCAATACACATACTACCCTGCTCATCAAAAGTCACATTTGGATGGTAGATACGAGTTTTGAACGATAGTTTTGGTGGCTTAAAAGGATAGTCTGAGGGGAGCGTTAAAAGAAGTTCAAAGTTA
B5: GS1845: dsRNA trigger SEQ ID NO 191; gene target Singe-stranded TG1-3 DNA-binding protein (nucleic acid)
chain: CAGATACTGCCCAAACTACCTTCATAATTTTCCGAGCTACACACCAGAACCTCGAGTATTGACATTACGGAATCATCTCACCATTTAAAAGTTGCGGTTTAACTTAAGCTGTAGCCGCAACAGTTTCAGCTGTCCCAGCTAGTCCTTCTGATTGAAGTTTATCATTAGTAATCCCTTTAGCGATGGCGCCATTAGTACCTTCGGTTGAGTTGCCAACATTAGATACTTCGCCAGCACCATCAGATACATGTGTAGTTAATTCTTCAGAGGTCTTGTCCGGACTATCTATTGCGATCTTTACTGCAATCTCACGACCTTGAACTTCTTTTCCATTCATTTCGGCAACAGCCCTATTTTGAAGTTCATTAGATGCTAAGTTCACAAAGCCAAACCCACGGCCTTTCCGAGGTTCGTTGCGGGCCTGAAGCTTTTTAACCATGAATTTTGGAATAGGACGCAGAGCAATTTTGGCAGATACTGGTTCGTAATCGGCAAATAGTTCCTTTAACTTTTCCTCGGATAAGTCATAAGGAAGATTGGCAACCATAACTTTTGTCTTAGATGGAAC
B6: GS1843: dsRNA trigger SEQ ID NO 184; gene target Ubiquitin-like protein SMT3 (nucleic acid)
chain: ATAAACCTGCCTTAGATACTAAATCAGGAGTTGGCGTTTTATGGGATTCTATTAGAGTTGTAAATTTCAAAGATACTTTGATTGGATTTTCTTAGATTAACCTCGACGAGAATCGATTTTCTAGATTTTTGGCTAAATCATACGAATTCAAATTTTCTTAGTAAATTGGACAATGCGCGCCGTAAACATATCGGGATGAAATTTTTTAATAATAAAATCAATTGAAAATAATAAATTTATATCCTATTTAATCACCGCCAACAAGAAGTTCGTTTTCCTTACCTACCTAGAATTAGTTTTTAGATATCGTTCGATGTTTCGTGAATTTCAAATCCAGATGTTGCCGCCGATTTGTTCTTGATGCACCTCTAGCGTATCTCCATCTGCCATATCGAGAAACTCAGGACTATCAGTTTGTTGAACACGACTCCCTTCAAATAAGAATCGAACAGAAGAAAGTGATTTCCCTTGCCTCTCACAGAACGCGTCCATCAATTTCTTAAGTGGTGTTGTTCGTTTAATTTTGAAGAAGACTTCATTATTGTTATCTGTAACCTTGATATTTAAATGTTCA
B7: GS1850: dsRNA trigger SEQ ID NO 198; gene target Ubiquitin-conjugating enzyme E2-34 kDa (nucleic acid)
chain: TCGTCATCCTCGTCTTGTTCAAAATCATAGTTATCATCGTCTGAGCTCTCGCTGGTACCGAACTCATCCTGATCATCACTCTCGTTCCAGAAATCATCGTCATCATTAATTTGCGGAGGAGGCGCCTCAATTAATGTTTTTGGCATCACAAAACCCTCCGGTATATCTCTCATAGAAATTCTTACTGTCTCCAAAGCCCGCTGTTTGTAAGCCTCCAGGTTATCCCGATACATAACGCTGGCATCAACATTTGCAGGGGAGGTAATCTCAGGGTCATCTAGTAAGAGAAGAATAGAGCGGAGAACACTTTCAACACTCTGAATTGATGACCAGCGCTCACAAGCAAGCTCTCCAGATTGTTCATCATCTCCAGCAGCGTGTAGTATTGAGATGCAAACCCTGCCATCAGGATATATATTTGGATGGTAAATAGGTTGCAAGAATTTGAAGGTCGGAGGAGCATAAGGATATTTATCAGTAAAACCCATTTCAGCCTTAAAATAAGCCCCATCGAAAGCACTTTCTGGGTTGACTACTATTAGAGCGATTAACCACTTGAA
B8: GS1849: dsRNA trigger SEQ ID NO 143; gene target Chitin synthase 8 (nucleic acid)
chain: TTGAGAAGCAGCCAACCATGTATTAACAACTAAGCTAGTGCTTGCATCAAGTTTATATGATTGCGTAGACGTGTAAGCAGTATGGATTGAGTTTAGGAGAGTAGTCGATGAGACTTGCGCTGGAGGTTGAGAAGTAGAATTGTTATTTCGAACACCTCCATACGCTGAAGAGGTAGTTGAATAGATAGACATCCGGTGAGTTCCAGTCATTTTATGAAGAGTGATCGAGTTTTTAGACCTTTCCACGTATGGATATTTAAGGTATGTAAATGAGTCAATTCAAAGTCACAAGATTCTCGATCAGTCGATTGATTGGCTTATTGACAATATTCTTTAGCCGAAATCTTAGACAATGGCTTGACAGAATTAATGTCTGGTCTTCGAAGTATCCAGTTGGTGTGTAGCAGATAACTTCGGTATAGTTGTAGAAATGGAAAACAAACCGCAAAAGACAGTCTTGTATCGACCGTGAGGCCGACAGTAGGAGAAATTCAATGCTATTGAGAAATTGAACAACCAAAAAGCGAAAGTAGGGTAACAAGTTTCGACTCACAGACCTA
B9: GS1842: dsRNA trigger SEQ ID NO 130; gene target AP-1 complex subunit gamma-1 (nucleic acid)
chain: GCCAATGCCTTGAGCGTCTGAACAAGACTTCCAGTGAGTGGTCTAAACTTCTCTACTATATTCTCTTCACCTTCTTCATCAGCTTCTATGTCGGCCTCGCAAAGGCTAGTGACAAGTGTCAAGCCACAAAGGAGAACTCCATGATTTCGATCTGAAATAAGTGTTTCTGCTTTTTCGAAGAAATGCTCTTGAAGATCTGGCACTTTCTTGCAAATACGCATAGCACATAGAGCAGCCTTCTTACGAATATATGGGTTTGCTGTGGAAAGGAGATTTTCTATCTCTGGAAAGAGATCTCTTGACATTTCGATTGATGCGATGTTGCCTAGCGTACAGAGGGCTAGTCCGACTATGTATTGATTAGAGTGATTGAGATCGTTCTTTAAGGAGTTTGTAACTAAGGTAAGAACCTCTTGATTTTCGTCTAAAAGCAACATGGTCCCTAAGTAACCAAGGCGTTTGTCGGCGAAACGAGGAGACGCAAGTAATTTAAGGCATTCTATCTGGCCAAAGTGGGTTCTTTCCCCAAGTGTGAAGAGATATAACAACTTTGCAACGTTATTACGTCTGACATTG

Test system: E. necator
Experiment: Leaf disc assay, dry inoculum (settling tower), decrease in disease severity / hyphal growth (Example 2)
Details: decrease in disease severity (hyphal growth) relative to untreated control, value ± SE; for % decrease =/− SE TP1: time point 1 (untreated control hyphal growth ≥50%); for % decrease =/− SE TP2: time point 2

Row | Molecule | % decrease =/− SE TP1 [%] | % decrease =/− SE TP2 [%]
1 | B1 | 18 ± 8 | 7 ± 8
2 | B2 | 22 ± 4 | –
3 | B3 | 22 ± 5 | –
4 | B4 | 21 ± 6 | 11 ± 10
5 | B5 | 23 ± 6 | 24 ± 6
6 | B6 | 20 ± 5 | 16 ± 8
7 | B7 | 13 ± 6 | 0 ± 6
8 | B8 | – | 5 ± 8
9 | B9 | 6 ± 7 | –
